Source: patent US20150098945A1 (Daiichi Sankyo, published 2015)
Where a chain is given by its changes, count along the chain named. One block for each binder: values may come before it.

Columns and labels:
[1] = target: T1, recombinant human ROBO4 extracellular region polypeptide rROBO4-ECD (human, UniProt Q8WZ75 28-461); assay: SPR (Biacore 3000), antibody captured via anti-human IgG on CM5, rROBO4-ECD as analyte, 1:1 model
T1 construct: Expressed from pEF6/V5-His-TOPO in FreeStyle 293-F cells; also called human ROBO4-ECD
T1 sequence: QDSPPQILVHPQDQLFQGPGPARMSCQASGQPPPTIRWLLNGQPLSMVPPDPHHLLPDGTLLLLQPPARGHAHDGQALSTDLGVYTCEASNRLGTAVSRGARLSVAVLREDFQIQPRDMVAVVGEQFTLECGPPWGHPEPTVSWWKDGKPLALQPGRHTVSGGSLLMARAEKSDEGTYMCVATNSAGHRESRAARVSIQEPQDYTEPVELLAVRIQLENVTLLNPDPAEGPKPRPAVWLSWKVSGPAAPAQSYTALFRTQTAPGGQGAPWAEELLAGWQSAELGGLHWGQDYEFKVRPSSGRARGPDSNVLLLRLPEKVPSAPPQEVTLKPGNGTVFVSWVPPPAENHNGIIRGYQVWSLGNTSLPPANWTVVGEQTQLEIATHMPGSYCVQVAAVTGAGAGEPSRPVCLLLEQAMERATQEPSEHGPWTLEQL
Experimental: The dissociation constant between each antibody and rROBO4-ECD was determined with the antibody immobilized as a ligand and the antigen as an analyte using Biacore 3000 (manufactured by GE Healthcare Bio-Sciences Corp.). Approximately 80 RU of the antibody was bound via an anti-human IgG antibody (manufactured by GE Healthcare Bio-Sciences Corp.) immobilized on a sensor chip CM5 (manufactured by GE Healthcare Bio-Sciences Corp.) by an amine coupling method. The running buffer used was PBS containing 0.05% Surfactant P20. Dilution series solutions (0.1-200 nM) of the antigen were added at a flow rate of 30 μL/min. for 300 seconds onto the antibody-bound chip. Subsequently, a dissociation phase was monitored for 300 seconds. 3 M MgCl₂ was added thereto as a regeneration solution at a flow rate of 10 μL/min. for 30 seconds. Data was analyzed using the 1:1 binding model of analysis software (BIAevaluation Software, version 4.1) to calculate an association rate constant kon, a dissociation rate constant koff, and a dissociation constant (KD; KD=koff/kon).

[2] = target: N-terminal FLAG-tagged human ROBO1 (pCI-FLAG-hROBO1-transfected HEK293 cells) (human, UniProt Q9Y6N7 58-1651); assay: flow cytometry (FC500), HEK293 cells transfected with pCI-FLAG-hROBO1, FITC goat anti-human IgG Fc; control histogram IgG (human IgG)
[3] = target: T2, N-terminal FLAG-tagged cynomolgus monkey ROBO4, cynoROBO4-1 (pCI-FLAG-cynoROBO4-1) (cynomolgus monkey, UniProt Q8WZ75 28-1007 (human entry)); assay: flow cytometry (FC500), HEK293 cells transfected with pCI-FLAG-cynoROBO4-1, antibody at 10 µg/mL, FITC goat anti-human IgG Fc; control histogram IgG (human IgG)
T2 chain: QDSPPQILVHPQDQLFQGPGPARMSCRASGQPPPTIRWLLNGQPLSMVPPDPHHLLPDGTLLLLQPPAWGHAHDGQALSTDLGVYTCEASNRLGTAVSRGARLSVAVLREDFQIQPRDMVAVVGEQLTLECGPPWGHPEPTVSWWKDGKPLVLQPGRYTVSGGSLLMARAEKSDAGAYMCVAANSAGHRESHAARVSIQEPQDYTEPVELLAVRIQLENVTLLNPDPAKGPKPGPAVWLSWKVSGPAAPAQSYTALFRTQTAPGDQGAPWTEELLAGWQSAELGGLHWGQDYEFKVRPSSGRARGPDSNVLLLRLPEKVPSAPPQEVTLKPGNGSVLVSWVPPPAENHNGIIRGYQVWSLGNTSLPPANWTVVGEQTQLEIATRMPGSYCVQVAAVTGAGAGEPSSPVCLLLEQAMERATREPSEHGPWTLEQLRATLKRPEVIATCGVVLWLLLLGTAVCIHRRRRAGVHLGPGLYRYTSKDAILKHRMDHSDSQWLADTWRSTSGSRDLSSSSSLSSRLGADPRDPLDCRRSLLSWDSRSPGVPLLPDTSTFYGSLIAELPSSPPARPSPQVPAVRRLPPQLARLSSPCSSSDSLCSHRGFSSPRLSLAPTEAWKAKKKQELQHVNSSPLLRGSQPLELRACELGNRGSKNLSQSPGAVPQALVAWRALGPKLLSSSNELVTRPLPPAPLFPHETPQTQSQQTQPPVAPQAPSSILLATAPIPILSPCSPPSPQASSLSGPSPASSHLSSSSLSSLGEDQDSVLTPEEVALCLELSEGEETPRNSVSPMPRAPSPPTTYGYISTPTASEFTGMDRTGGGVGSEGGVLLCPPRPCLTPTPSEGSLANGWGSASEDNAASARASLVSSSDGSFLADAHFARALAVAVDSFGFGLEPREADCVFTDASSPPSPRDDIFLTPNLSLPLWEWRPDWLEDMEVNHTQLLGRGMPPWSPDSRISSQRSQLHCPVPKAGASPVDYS

N-terminal FLAG-tagged human ROBO1 (pCI-FLAG-hROBO1-transfected HEK293 cells), sequence (Q9Y6N7 other isoform, or with tags, fused parts or gaps): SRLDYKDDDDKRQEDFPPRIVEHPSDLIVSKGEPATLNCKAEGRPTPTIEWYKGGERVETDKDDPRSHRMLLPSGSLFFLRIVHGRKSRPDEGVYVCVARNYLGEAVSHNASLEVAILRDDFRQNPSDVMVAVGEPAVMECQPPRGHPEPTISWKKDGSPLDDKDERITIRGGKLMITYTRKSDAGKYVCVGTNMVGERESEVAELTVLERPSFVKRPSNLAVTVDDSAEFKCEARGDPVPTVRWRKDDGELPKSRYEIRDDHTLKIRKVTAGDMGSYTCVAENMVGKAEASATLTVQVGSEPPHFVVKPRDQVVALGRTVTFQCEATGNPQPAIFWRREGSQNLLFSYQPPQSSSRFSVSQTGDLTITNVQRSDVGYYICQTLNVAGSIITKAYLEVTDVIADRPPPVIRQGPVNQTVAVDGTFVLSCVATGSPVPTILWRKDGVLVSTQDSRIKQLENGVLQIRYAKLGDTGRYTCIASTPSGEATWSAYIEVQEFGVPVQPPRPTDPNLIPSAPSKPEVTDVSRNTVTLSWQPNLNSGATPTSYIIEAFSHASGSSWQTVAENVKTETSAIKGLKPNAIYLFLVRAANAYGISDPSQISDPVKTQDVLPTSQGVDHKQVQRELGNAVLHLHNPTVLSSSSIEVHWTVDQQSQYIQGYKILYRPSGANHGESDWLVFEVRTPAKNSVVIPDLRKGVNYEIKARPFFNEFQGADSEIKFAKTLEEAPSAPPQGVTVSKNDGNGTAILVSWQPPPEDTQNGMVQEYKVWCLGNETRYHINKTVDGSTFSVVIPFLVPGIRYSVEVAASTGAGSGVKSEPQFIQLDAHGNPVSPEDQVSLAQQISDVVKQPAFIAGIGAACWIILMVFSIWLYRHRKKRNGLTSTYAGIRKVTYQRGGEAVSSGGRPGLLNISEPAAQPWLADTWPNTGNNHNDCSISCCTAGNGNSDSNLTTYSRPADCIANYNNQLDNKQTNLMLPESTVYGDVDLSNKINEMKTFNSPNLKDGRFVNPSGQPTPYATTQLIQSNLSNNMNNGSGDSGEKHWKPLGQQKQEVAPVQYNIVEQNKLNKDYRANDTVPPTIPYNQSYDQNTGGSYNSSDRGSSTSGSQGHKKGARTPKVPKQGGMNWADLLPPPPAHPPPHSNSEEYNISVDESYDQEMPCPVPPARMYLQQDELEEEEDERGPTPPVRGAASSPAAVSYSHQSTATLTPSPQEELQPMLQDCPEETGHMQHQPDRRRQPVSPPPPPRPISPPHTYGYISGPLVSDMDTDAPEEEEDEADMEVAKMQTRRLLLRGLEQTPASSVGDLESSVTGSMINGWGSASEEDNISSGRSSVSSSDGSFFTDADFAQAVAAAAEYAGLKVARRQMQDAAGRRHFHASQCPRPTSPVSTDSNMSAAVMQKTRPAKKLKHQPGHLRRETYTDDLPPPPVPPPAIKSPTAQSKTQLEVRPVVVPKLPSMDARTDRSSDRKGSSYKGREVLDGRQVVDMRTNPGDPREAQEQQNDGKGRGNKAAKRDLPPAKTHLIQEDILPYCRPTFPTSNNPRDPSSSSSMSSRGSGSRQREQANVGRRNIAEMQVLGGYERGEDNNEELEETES

Kd [1]: 3.5 nM | binding result [2]: no binding (tested: 10 µg/mL)
B1: humanized MAb1 antibody H-1143 (antibody, human IgG2, kappa, V domains shown)
VH: EVQLVESGGGLVQPGGSLRLSCAASGFTFSTYAMSWVRQAPGKGLEWVATISQGGTYTYYPDSVKGRFTISRDNAKNTLYLQMNSLRAEDTAVYYCARLIYYDYLDYWGQGTLVTVSS
VL: DIVMTQSPLSLPVTLGEPASISCRSSQSLENENKNLYLNWYLQKPGQSPQLLIYRVSNRFSGVPDRFSGSGSGTDFTLKISRVEAEDVGVYYCLQVTHVPWTFGPGTKVDIKR
notes: Human IgG2 / kappa constant regions; also called hMAb1-H2-type heavy chain + hMAb1-L2-type light chain

binding result [3]: binds | Kd [1]: 1.8 nM | binding result [2]: no binding (tested: 10 µg/mL)
B2: humanized MAb1 antibody H-2140 (antibody, human IgG2, kappa, V domains shown)
VH: B1 VH with G44R
VL: B1 VL with E32S, K34G, L36T
notes: Human IgG2 / kappa constant regions; also called hMAb1-H4-type heavy chain + hMAb1-L1-type light chain

Kd [1]: 1.7 nM | binding result [2]: no binding (tested: 10 µg/mL)
B3: humanized MAb1 antibody H-2143 (antibody, human IgG2, kappa, V domains shown)
VH: B1 VH with G44R
VL: B1 VL
notes: Human IgG2 / kappa constant regions; also called hMAb1-H4-type heavy chain + hMAb1-L2-type light chain

Kd [1]: 3.9 nM
B4: humanized MAb1 antibody H-1140 (antibody, human IgG2, kappa, V domains shown)
VH: B1 VH
VL: B1 VL with E32S, K34G, L36T
notes: Human IgG2 / kappa constant regions; also called hMAb1-H2-type heavy chain + hMAb1-L1-type light chain
